Results reported in patent EP0977036A1, “METHOD FOR ASSAYING AGALACTO-IgG AND ASSAY KITS, PO[…] LECTINS, AND DNAS ENCODING THE SAME” (SEIKAGAKU CORPORATION, priority 1996, dated 1998).

Target: agalacto-IgG (human IgG treated with streptococcal beta-galactosidase and sialidase, Preparation Example 1)
Test: sandwich ELISA of Example 3, agalacto-IgG 2.5 µg/ml, competitor GlcNAc 50 mM (a monosaccharide)

Substance: Psathyrella velutina lectin (PVL), purified from Psathyrella velutina fruiting body
- percent inhibition in the presence of 50 mM GlcNAc: 50%
